Here are results for two molecules from paper PMC3097272 (The FEBS journal, 2011).

Assay [1] has as its target non-muscle human F-actin (human) (UniProt P60709). The assay is described as follows: co-sedimentation.
For assay [2], the target named is rabbit skeletal muscle myosin II (rabbit, UniProt Q28641 1-1938; P02602 1-192; P02608 1-170). Briefly: co-sedimentation.
Sequence of rabbit skeletal muscle myosin II (Q28641 whole entry, chain 1 of 3): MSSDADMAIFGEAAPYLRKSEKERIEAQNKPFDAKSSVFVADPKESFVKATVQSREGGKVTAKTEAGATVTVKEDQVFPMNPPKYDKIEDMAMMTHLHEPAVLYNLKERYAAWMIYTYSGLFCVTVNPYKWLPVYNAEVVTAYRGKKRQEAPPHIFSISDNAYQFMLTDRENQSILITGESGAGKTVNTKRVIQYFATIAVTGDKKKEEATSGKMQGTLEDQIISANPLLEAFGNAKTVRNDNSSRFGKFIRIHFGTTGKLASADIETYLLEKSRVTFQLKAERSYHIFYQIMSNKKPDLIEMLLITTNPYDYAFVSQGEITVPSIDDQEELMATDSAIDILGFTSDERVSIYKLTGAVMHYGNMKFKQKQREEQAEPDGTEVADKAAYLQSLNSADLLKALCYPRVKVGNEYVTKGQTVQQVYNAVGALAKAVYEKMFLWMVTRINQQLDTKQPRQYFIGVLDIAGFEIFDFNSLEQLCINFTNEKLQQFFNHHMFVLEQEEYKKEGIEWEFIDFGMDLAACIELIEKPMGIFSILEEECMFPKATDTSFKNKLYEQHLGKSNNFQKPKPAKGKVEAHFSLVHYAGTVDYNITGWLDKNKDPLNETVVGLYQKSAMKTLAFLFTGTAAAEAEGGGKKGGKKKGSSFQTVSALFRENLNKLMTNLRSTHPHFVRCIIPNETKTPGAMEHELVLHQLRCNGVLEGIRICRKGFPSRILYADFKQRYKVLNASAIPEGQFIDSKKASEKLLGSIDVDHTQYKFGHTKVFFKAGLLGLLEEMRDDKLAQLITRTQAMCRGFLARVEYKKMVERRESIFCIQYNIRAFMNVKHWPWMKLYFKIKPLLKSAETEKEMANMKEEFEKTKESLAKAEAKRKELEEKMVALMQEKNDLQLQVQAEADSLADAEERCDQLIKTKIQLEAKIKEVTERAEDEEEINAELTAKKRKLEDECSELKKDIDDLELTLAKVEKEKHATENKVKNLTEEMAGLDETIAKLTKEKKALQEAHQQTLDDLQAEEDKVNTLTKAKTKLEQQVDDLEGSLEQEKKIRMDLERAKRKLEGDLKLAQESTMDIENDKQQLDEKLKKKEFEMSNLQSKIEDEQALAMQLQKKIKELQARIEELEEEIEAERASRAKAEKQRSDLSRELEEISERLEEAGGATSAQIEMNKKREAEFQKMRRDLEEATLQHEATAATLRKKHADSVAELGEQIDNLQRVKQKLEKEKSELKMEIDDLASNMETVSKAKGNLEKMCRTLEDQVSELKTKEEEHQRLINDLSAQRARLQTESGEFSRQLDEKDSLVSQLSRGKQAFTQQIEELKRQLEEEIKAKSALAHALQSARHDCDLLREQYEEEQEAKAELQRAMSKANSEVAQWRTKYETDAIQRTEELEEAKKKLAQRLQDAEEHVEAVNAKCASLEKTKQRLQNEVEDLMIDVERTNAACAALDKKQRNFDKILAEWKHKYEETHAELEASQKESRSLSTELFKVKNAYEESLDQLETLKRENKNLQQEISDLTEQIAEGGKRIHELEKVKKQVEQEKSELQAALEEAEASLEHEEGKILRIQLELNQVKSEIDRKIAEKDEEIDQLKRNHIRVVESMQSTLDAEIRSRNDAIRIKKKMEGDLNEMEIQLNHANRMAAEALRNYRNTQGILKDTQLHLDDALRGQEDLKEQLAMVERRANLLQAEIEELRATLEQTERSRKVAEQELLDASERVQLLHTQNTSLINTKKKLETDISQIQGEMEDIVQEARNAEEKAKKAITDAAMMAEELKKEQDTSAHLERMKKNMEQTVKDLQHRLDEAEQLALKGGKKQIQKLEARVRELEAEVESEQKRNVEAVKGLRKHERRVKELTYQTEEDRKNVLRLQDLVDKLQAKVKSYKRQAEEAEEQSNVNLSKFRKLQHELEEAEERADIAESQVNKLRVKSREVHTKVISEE
Sequence of rabbit skeletal muscle myosin II (P02602 2-192, chain 2 of 3): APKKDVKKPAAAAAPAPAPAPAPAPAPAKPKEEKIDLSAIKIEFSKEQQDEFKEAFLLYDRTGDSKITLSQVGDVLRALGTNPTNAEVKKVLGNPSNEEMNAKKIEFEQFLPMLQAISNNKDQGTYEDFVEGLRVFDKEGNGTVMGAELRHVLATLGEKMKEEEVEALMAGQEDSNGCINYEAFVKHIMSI
Sequence of rabbit skeletal muscle myosin II (P02608 2-170, chain 3 of 3): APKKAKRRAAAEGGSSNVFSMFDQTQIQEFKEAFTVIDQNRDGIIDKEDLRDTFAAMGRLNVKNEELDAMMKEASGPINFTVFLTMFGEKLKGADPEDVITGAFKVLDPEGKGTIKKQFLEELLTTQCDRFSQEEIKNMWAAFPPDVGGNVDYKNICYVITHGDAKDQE

As to “recombinant HGAL protein (Trx-HGAL fusion protein) (from UniProt Q8N6F7 1-178) (natural protein)”, in assay [1], the stoichiometry N (molar ratio (to 1)) is 5.

B1: recombinant HGAL protein (Trx-HGAL fusion protein) (natural protein, human, UniProt Q8N6F7 1-178, looked up)
chain: MGNSLLRENRRQQNTQEMPWNVRMQSPKQRTSRCWDHHIAEGCFCLPWKKILIFEKRQDSQNENERMSSTPIQDNVDQTYSEELCYTLINHRVLCTRPSGNSAEEYYENVPCKAERPRESLGGTETEYSLLHMPSTDPRHARSPEDEYELLMPHRISSHFLQQPRPLMAPSETQFSHL
Turning to B1, the “stoichiometry N” value in assay [2] is 2.5 molar ratio (to 1).
